The Human Domainome abundance scans (Beltran et al. 2025)
± gives the uncertainty stated by the source.

B1: POU domain, class 2, transcription factor 3, residues 186 to 260; numbered along this chain, Q9UKI9 (parent)
chain: SDLEELEKFAKTFKQRRIKLGFTQGDVGLAMGKLYGNDFSQTTISRFEALNLSFKNMCKLKPLLEKWLNDAESSP

Variants of: B1
Assay: abundance fitness (aPCA) (normalised: wild type 0, dead -1); higher = more abundant; growth selection in yeast, the domain comes from the species named
Details: Homo sapiens

Abundance fitness of substitutions, site by site:
E48: K -0.705 ± 0.081, Q -1.16 ± 0.19, L -0.836 ± 0.08
L50: Y -0.077 ± 0.07, N 0.087 ± 0.07, D -0.204 ± 0.082, H 0.142 ± 0.091, A 0.017 ± 0.033, Q -0.055 ± 0.067, C -0.078 ± 0.069, G 0.031 ± 0.027, T -0.003 ± 0.047, K -0.051 ± 0.048, R 0.009 ± 0.031, E -0.165 ± 0.04, M -0.02 ± 0.045, S 0.031 ± 0.041, W -0.105 ± 0.044
K59: N -0.026 ± 0.061, S -0.033 ± 0.036, P -0.733 ± 0.081, E 0.053 ± 0.037, D -0.039 ± 0.055, G -0.086 ± 0.027, M -0.056 ± 0.043, F 0.06 ± 0.065, H -0.015 ± 0.21, Q -0.03 ± 0.047, I -0.037 ± 0.1, A -0.013 ± 0.03
F54: S -0.059 ± 0.034, A 0.013 ± 0.032, N -0.037 ± 0.072, T 0.013 ± 0.041, W -0.024 ± 0.032, C -0.068 ± 0.046, L -0.041 ± 0.033, R 0.024 ± 0.026, E 0.018 ± 0.038, M 0.057 ± 0.049, D -0.063 ± 0.046, Q -0.025 ± 0.047, K 0.014 ± 0.043, H 0.033 ± 0.082, V -0.012 ± 0.03, Y 0.115 ± 0.058, P -0.041 ± 0.042, I -0.006 ± 0.054, G -0.05 ± 0.026
A49: V 0.011 ± 0.16, T -0.253 ± 0.25, M -0.201 ± 0.11, F -0.274 ± 0.29, S 0.089 ± 0.17, L -0.197 ± 0.12, P -0.384 ± 0.21, K -0.315 ± 0.4, H 0.014 ± 0.15, Q 0.133 ± 0.27, R -0.036 ± 0.13
G36: C -0.18 ± 0.41, S 0.1 ± 0.1
I44: R -0.86 ± 0.041, Q -0.985 ± 0.082, Y -0.569 ± 0.074, A -0.784 ± 0.048, V -0.045 ± 0.024, G -1 ± 0.045, M -0.377 ± 0.035, E -0.794 ± 0.049, L -0.149 ± 0.025, H -1.02 ± 0.21, C -0.538 ± 0.056, N -1.1 ± 0.2, P -0.919 ± 0.085, D -1.03 ± 0.13
F47: T -0.812 ± 0.13, D -0.985 ± 0.32, Q -1.22 ± 0.34, M -0.279 ± 0.053, A -0.712 ± 0.069, I -0.433 ± 0.11, N -0.932 ± 0.34, E -0.942 ± 0.13, P -1.09 ± 0.25, G -0.925 ± 0.063, L -0.098 ± 0.037, K -1.15 ± 0.28, R -1.08 ± 0.092, S -0.915 ± 0.17, W -0.27 ± 0.045, V -0.346 ± 0.037, Y -0.222 ± 0.066, C -0.845 ± 0.14
M31: R -0.746 ± 0.37, C -0.583 ± 0.31
M57: E -0.814 ± 0.09, P -0.8 ± 0.12, W -0.27 ± 0.043, H -0.811 ± 0.29, L -0.021 ± 0.033, S -0.02 ± 0.047, F -0.222 ± 0.14, K -0.396 ± 0.064, C -0.166 ± 0.058, G -0.172 ± 0.032, T -0.25 ± 0.042, Y -0.496 ± 0.12, I -0.305 ± 0.097, V -0.202 ± 0.034, A -0.024 ± 0.036, N -0.167 ± 0.095, Q -0.318 ± 0.077, R -0.608 ± 0.044, D -0.451 ± 0.11
T42: I 0.135 ± 0.25
K55: E 0.016 ± 0.042, P -0.155 ± 0.06, N -0.152 ± 0.066, V -0.006 ± 0.034, I -0.12 ± 0.13, C -0.033 ± 0.078, F -0.031 ± 0.068, L 0.001 ± 0.039, D 0.037 ± 0.052, R -0.015 ± 0.028, Y 0.069 ± 0.081, Q 0.046 ± 0.046, W -0.093 ± 0.042, M -0.052 ± 0.047, S 0.011 ± 0.036, T -0.003 ± 0.047, H -0.132 ± 0.099, G 0.009 ± 0.029
V27: D -0.727 ± 0.4
L52: E -0.131 ± 0.044, A -0.148 ± 0.039, M -0.004 ± 0.044, I -0.183 ± 0.094, K -0.618 ± 0.084, C -0.107 ± 0.062, W -0.201 ± 0.034, S -0.25 ± 0.043, P -0.972 ± 0.19, N -0.444 ± 0.1, G -0.149 ± 0.027, D -0.021 ± 0.11, F -0.231 ± 0.08, R -0.717 ± 0.048
S45: G -0.036 ± 0.022, H -0.097 ± 0.05, P -0.04 ± 0.036, W -0.138 ± 0.03, V -0.077 ± 0.026, T -0.036 ± 0.03, R -0.024 ± 0.023, M -0.037 ± 0.035, C 0.022 ± 0.038, K 0.021 ± 0.035, F -0.253 ± 0.054, I -0.125 ± 0.05, L -0.125 ± 0.026, D -0.048 ± 0.037, A 0.013 ± 0.025, Y -0.099 ± 0.043, N 0.004 ± 0.05
G32: R 0.29 ± 0.27
